Test results as given in patent US20200317768A1 (published 2020).
Changes are numbered by the printed parent chain.

B1: MS_M103205H795-SG1/M103202L889-SK1 (antibody, human IgG1, kappa)
heavy: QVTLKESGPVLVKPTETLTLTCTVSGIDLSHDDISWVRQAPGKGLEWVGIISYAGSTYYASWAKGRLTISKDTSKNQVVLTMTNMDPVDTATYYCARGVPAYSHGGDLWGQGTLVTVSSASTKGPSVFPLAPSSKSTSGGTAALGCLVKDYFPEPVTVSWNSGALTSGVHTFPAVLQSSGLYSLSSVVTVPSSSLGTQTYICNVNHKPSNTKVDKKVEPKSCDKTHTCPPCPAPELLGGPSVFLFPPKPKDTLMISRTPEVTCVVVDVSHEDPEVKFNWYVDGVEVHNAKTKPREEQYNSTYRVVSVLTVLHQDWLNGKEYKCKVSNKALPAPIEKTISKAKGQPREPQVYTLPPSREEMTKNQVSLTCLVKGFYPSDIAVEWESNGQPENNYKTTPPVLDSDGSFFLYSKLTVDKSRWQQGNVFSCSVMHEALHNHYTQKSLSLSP
light: DIVMTQSPATLSLSPGERATLSCTSSQSVYHANWLSWFQQKPGQPPKLLIYWASTLAYGVPSRFSGSGSGTDFTLTISSLQPEDAATYYCAGGYGGGRYAFGQGTKVEIKRTVAAPSVFIFPPSDEQLKSGTASVVCLLNNFYPREAKVQWKVDNALQSGNSQESVTEQDSKDSTYSLSSTLTLSKADYEKHKVYACEVTHQGLSSPVTKSFNRGEC
notes: Parent of the Fc variants; also called MS1032LO06-SG1
B2: M103205H795-MY001/M103202L889-SK1 (antibody, human IgG1, kappa)
heavy: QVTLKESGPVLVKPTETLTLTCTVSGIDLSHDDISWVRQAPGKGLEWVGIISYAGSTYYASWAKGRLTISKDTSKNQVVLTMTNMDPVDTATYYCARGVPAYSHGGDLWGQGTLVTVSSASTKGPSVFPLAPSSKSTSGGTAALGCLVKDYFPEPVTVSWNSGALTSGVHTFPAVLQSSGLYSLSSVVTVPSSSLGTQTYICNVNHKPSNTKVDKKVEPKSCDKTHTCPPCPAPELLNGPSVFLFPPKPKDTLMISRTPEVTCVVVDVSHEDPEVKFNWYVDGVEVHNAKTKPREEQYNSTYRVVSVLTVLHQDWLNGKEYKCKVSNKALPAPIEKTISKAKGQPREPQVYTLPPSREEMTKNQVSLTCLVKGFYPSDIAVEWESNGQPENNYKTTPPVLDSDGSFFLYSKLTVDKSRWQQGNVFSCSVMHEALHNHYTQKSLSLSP
light: B1 light
notes: Substitutions introduced into M103205H795-SG1; expressed with M103202L889-SK1 as light chain
B3: M103205H795-MY047/M103202L889-SK1 (antibody, human IgG1, kappa)
heavy: not shown
light: B1 light
notes: as for B2
B4: M103205H795-MY048/M103202L889-SK1 (antibody, human IgG1, kappa)
heavy: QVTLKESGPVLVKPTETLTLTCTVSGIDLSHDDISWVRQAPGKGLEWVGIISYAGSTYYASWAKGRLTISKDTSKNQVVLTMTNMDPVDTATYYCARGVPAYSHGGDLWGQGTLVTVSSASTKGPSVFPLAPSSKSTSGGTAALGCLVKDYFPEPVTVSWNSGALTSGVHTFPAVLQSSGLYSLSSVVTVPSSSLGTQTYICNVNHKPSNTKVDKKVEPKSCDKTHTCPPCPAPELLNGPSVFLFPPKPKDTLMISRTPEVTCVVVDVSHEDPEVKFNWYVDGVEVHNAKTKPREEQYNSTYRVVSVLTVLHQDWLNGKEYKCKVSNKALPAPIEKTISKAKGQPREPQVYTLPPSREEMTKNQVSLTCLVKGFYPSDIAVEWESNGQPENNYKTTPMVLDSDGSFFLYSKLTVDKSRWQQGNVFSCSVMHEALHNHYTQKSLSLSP
light: B1 light
notes: as for B2
B5: M103205H795-MY049/M103202L889-SK1 (antibody, human IgG1, kappa)
heavy: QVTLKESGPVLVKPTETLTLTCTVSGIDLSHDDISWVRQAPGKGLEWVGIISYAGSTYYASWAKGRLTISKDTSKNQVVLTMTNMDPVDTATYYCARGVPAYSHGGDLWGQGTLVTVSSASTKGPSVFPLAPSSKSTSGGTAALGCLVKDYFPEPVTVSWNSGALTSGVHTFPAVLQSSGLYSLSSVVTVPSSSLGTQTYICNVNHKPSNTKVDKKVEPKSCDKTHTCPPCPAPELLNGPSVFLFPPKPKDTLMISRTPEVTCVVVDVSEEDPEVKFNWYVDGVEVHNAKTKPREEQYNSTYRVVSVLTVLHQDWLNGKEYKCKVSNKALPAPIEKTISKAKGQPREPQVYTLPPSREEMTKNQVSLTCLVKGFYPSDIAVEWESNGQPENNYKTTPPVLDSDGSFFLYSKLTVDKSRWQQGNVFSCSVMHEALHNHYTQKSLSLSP
light: B1 light
notes: as for B2
B6: M103205H795-MY050/M103202L889-SK1 (antibody, human IgG1, kappa)
heavy: QVTLKESGPVLVKPTETLTLTCTVSGIDLSHDDISWVRQAPGKGLEWVGIISYAGSTYYASWAKGRLTISKDTSKNQVVLTMTNMDPVDTATYYCARGVPAYSHGGDLWGQGTLVTVSSASTKGPSVFPLAPSSKSTSGGTAALGCLVKDYFPEPVTVSWNSGALTSGVHTFPAVLQSSGLYSLSSVVTVPSSSLGTQTYICNVNHKPSNTKVDKKVEPKSCDKTHTCPPCPAPELLNGPSVFLFPPKPKDTLMISRTPEVTCVVVDVAEEDPEVKFNWYVDGVEVHNAKTKPREEQYNSTYRVVSVLTVLHQDWLNGKEYKCKVSNKALPAPIEKTISKAKGQPREPQVYTLPPSREEMTKNQVSLTCLVKGFYPSDIAVEWESNGQPENNYKTTPPVLDSDGSFFLYSKLTVDKSRWQQGNVFSCSVMHEALHNHYTQKSLSLSP
light: B1 light
notes: as for B2
B7: M103205H795-MY051/M103202L889-SK1 (antibody, human IgG1, kappa)
heavy: B6 heavy with A269S, P273G
light: B1 light
notes: as for B2
B8: M103205H795-MY052/M103202L889-SK1 (antibody, human IgG1, kappa)
heavy: B6 heavy with A269S, P398M
light: B1 light
notes: as for B2
B9: M103205H795-MY101/M103202L889-SK1 (antibody, human IgG1, kappa)
heavy: B6 heavy with A269S, A332K, P398M
light: B1 light
notes: also called MS1032LO06-MY101
B10: M103205H795-MY105/M103202L889-SK1 (antibody, human IgG1, kappa)
heavy: B6 heavy with S241V, A269S, P398M
light: B1 light
notes: as for B2
B11: M103205H795-MY115/M103202L889-SK1 (antibody, human IgG1, kappa)
heavy: B6 heavy with P398M
light: B1 light
notes: as for B2
B12: M103205H795-MY117/M103202L889-SK1 (antibody, human IgG1, kappa)
heavy: B6 heavy with L236W, P398M
light: B1 light
notes: as for B2
B13: M103205H795-MY141/M103202L889-SK1 (antibody, human IgG1, kappa)
heavy: B6 heavy with E270H, P398M
light: B1 light
notes: as for B2
B14: M103205H795-MY147/M103202L889-SK1 (antibody, human IgG1, kappa)
heavy: B6 heavy with L237W, A269S, P398M
light: B1 light
notes: as for B2
B15: M103205H795-MY197/M103202L889-SK1 (antibody, human IgG1, kappa)
heavy: B6 heavy with A269S, E270D, A332K, P398M
light: B1 light
notes: as for B2

Assays:
[1] = biological target: T1, cynomolgus monkey FcγRIIIaS extracellular domain, C-terminal His-tag (cynomolgus monkey, UniProt Q8SPW2 21-206 at identity 1.00)); assay: SPR (Biacore), antibody captured, FcgR analyte
T1 construct: also called cyno FcγRIIIaS; cynoFcγRIIIaS
T1 chain: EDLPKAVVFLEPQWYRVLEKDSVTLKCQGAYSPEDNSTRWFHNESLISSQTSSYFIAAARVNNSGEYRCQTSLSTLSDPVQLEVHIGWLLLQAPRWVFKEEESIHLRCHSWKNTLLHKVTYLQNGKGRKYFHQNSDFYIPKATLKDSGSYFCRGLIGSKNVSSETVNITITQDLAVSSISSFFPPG

[2] = biological target: T2, cynomolgus monkey FcγRIIa3 extracellular domain, C-terminal His-tag (cynomolgus monkey); assay: SPR (Biacore), antibody captured, FcgR analyte
T2 construct: also called cyno FcγRIIa3; cynoFcgRIIa3
T2 chain: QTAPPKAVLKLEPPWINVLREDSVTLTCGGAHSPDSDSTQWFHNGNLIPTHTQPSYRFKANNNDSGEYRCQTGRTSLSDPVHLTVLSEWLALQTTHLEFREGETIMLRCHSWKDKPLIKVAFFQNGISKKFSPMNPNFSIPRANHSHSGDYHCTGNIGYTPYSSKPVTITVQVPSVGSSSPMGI

[3] = biological target: T3, cynomolgus monkey FcγRIIb extracellular domain, C-terminal His-tag (cynomolgus monkey); assay: SPR (Biacore), antibody captured, FcgR analyte
T3 construct: also called cyno FcγRIIb; cynoFcγRIIb
T3 chain: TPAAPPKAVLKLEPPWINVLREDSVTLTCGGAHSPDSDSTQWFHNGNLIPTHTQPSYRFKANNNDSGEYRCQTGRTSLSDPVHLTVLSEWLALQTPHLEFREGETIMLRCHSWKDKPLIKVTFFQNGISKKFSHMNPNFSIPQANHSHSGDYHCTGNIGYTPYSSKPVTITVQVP

[4] = biological target: T4, human FcγRIIIaV extracellular domain, C-terminal His-tag (human, UniProt P08637 17-208); assay: SPR (Biacore), antibody captured, FcgR analyte
T4 construct: also called human FcgRIIIaV; FcgRIIIaV
T4 sequence (P08637 17-208 F176V): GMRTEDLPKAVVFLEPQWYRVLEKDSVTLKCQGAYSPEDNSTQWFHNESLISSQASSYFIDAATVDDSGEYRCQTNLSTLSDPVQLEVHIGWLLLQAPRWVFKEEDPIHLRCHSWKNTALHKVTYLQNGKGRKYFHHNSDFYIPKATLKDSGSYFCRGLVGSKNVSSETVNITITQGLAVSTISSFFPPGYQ

[5] = biological target: T5, human FcγRIIaH extracellular domain, C-terminal His-tag (human, UniProt P12318 34-217); assay: SPR (Biacore), antibody captured, FcgR analyte
T5 construct: also called human FcγRIIa (type H); FcgRIIaH
T5 sequence: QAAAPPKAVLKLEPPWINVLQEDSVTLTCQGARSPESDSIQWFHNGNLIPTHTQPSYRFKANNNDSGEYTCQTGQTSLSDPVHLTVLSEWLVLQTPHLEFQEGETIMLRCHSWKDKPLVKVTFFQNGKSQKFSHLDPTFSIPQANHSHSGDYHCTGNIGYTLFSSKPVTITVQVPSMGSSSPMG

[6] = biological target: T6, cynomolgus monkey FcγRIIa1 extracellular domain, C-terminal His-tag (cynomolgus monkey); assay: SPR (Biacore), antibody captured, FcgR analyte
T6 construct: also called cyno FcγRIIa1; cynoFcgRIIa1
T6 chain: T2 chain with T95P, A121T, S128A, P133H, N135D

[7] = biological target: T7, human FcγRIIb extracellular domain, C-terminal His-tag (human, UniProt P31994 43-217); assay: SPR (Biacore), antibody captured, FcgR analyte
T7 construct: also called human FcgRIIb; FcgRIIb
T7 sequence: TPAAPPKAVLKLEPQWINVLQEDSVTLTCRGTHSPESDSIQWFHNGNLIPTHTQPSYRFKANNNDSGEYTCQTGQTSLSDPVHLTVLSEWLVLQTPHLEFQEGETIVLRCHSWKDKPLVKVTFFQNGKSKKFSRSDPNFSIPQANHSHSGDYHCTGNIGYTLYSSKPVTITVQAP

[8] = biological target: T8, cynomolgus monkey FcγRIIa2 extracellular domain, C-terminal His-tag (cynomolgus monkey); assay: SPR (Biacore), antibody captured, FcgR analyte
T8 construct: also called cyno FcγRIIa2; cynoFcgRIIa2
T8 chain: T2 chain with I127K, K130N, P133H, R142Q

[9] = biological target: T1, cynomolgus monkey FcγRIIIaS …; assay: SPR (Biacore); KD of SG1 / KD of variant;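 note: relative to parent M103205H795-SG1 carrying the SG1 human heavy chain constant region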

Row | Binder | Kd [1] | Kd [2] | Kd [3] | Kd [4] | Kd [5] | Kd [6] | Kd [7] | Kd [8] | KD fold (SG1 = 1) [9]
1 | B1 | 0.36 µM | 17 µM | 1.8 µM | 0.81 µM | 0.69 µM | 3.2 µM | 4.6 µM | 5.1 µM | 1 fold
2 | B2 | 1.2 µM | 15 µM | 1.8 µM | 18 µM | 0.032 µM | 29 µM | 7.7 µM | 3.6 µM | 0.05 fold
3 | B3 | 7.8 µM | 24 µM | 2.6 µM | 7.7 µM | 2.8 µM | 4.8 µM | 3.7 µM | 3.4 µM | 0.05 fold
4 | B4 | 0.054 µM | 70 µM | 0.91 µM | 12 µM | 1.1 µM | 14 µM | 3.3 µM | 1.7 µM | 0.07 fold
5 | B5 | 4.6 µM | 6.6 µM | 0.85 µM | 7.8 µM | 1.8 µM | 2.7 µM | 1.5 µM | 2.3 µM | 0.08 fold
6 | B6 | 1.7 µM | 19 µM | 1.4 µM | 3.3 µM | 2.1 µM | 4.3 µM | 0.75 µM | 4.2 µM | 0.21 fold
7 | B7 | 2.1 µM | 18 µM | 1.9 µM | 74 µM | 22 µM | 4.6 µM | 2 µM | 4.8 µM | 0.17 fold
8 | B8 | 1.5 µM | 3.9 µM | 0.46 µM | 4.6 µM | 0.63 µM | 1.4 µM | 0.72 µM | 1.5 µM | 0.14 fold
9 | B9 | 32 µM | 36 µM | 0.55 µM | 11 µM | 0.48 µM | 1.1 µM | 0.49 µM | 1.2 µM | 0.11 fold
10 | B10 | 13 µM | 13 µM | 0.39 µM | 5.9 µM | 15 µM | 12 µM | 0.57 µM | 0.9 µM | 0.28 fold
11 | B11 | 0.85 µM | 76 µM | 0.78 µM | 8.6 µM | 0.96 µM | 2.3 µM | 0.82 µM | 2.7 µM | 0.42 fold
12 | B12 | 1 µM | 9.9 µM | 1 µM | 7.3 µM | 2.2 µM | 2.6 µM | 0.6 µM | 3.2 µM | 0.36 fold
13 | B13 | 47 µM | 20 µM | 1.8 µM | 12 µM | 12 µM | 22 µM | 1.1 µM | 2.8 µM | 0.08 fold
14 | B14 | 5.5 µM | 6.6 µM | 0.96 µM | 11 µM | 1.2 µM | 2.2 µM | 0.85 µM | 2.2 µM | 0.07 fold
15 | B15 | 2.1 µM | 14 µM | 0.17 µM | 10 µM | 0.36 µM | 0.58 µM | 0.89 µM | 0.56 µM | 0.17 fold
